Data from article doi:10.1101/2021.10.27.466080, “The structure of a native orthobunyavirus ribonucleoprotein reveals a key role for viral RNA in maintaining its helical architecture” (bioRxiv, 2021).

Molecular target: the molecule itself
Experiment: cryo-EM structure; native BUNV RNPs purified from virions, TNE with 25 mM NaCl; cryo-ET sub-tomogram average (20 Å) used as reference for a single-particle average with helical symmetry at 13 Å; 'split' NP from PDB 3ZLA fitted flexibly by molecular dynamics (MDFF)

B1: Bunyamwera virus (BUNV) nucleocapsid protein (NP) (natural protein)
chain: MIELEFHDVAANTSSTFDPEVAYANFKRVHTTGLSYDHIRIFYIKGREIKTSLAKRSEWEVTLNLGGWKITVYNTNFPGNRNNPVPDDGLTLHRLSGFLARYLLEKMLKVSEPEKLIIKSKIINPLAEKNGITWNDGEEVYLSFFPGSEMFLGTFRFYPLAIGIYKVQRKEMEPKYLEKTMRQRYMGLEAATWTVSKLTEVQSALTVVSSLGWKKTNVSAAARDFLAKFGINM
notes: Nucleocapsid protein (NP) of Bunyamwera virus, as it stands in native ribonucleoproteins (RNPs) with the genomic RNA; NP stands in the RNP as a helical polymer wrapped around viral genomic RNA (S, M, L segments); about 3.7 NP per helical turn; The number of copies depends on the segment; also called BUNV NP; nucleoprotein; source: native RNPs purified from BUNV virions propagated in BHK-21 cells …
binding result: binds
